# Assay: soluble on expression in E. coli; label from the status in PepcDB or PDB records
row,Sequence,soluble on expression in E. coli
1,QGIETVTKANGYETLLAHFSYDELEEERKIASLLSYQVDGLILTESHHTPRTLQMIKNAGVPVVETMELPPQPIDMAVGLDHEDASYNAVKRMLDAGKRTIVYFGARLDTRTKLRMQGYDRAMNEAGLEPKHVLTGVHSSFSLAHDLLERALKTYPTLDGVFCTNDDIAIGTMLSAQQRGIQVPQQLAVVGYNALDIGQTISPKLTSVDTPRFQIGVKSAELLIARLKGEAQEEKVFDMGYQITSGESV,not soluble
2,MSLSRRGRPKIPRFISEEPKFRIFKPHGVSLTEVDKVILSVDELEAIRLVDYLDYTQEEASKLMGISRRVLWSLLTEGRKKIADALINGKAIVIEGGEYKIRECGFCMRHRFGIKKHCRTWREELEGHHHHHH,not soluble
3,MEPHSLRYNLTVLSWDGSVQSGFLTEVHLDGQPFLRCDRQKCRAKPQGQWAEDVLGNKTWDRETRDLTGNGKDLRMTLAHIKDQKEGLHSLQEIRVCEIHEDNSTRSSQHFYYDGELFLSQNLETKEWTMPQSSRAQTLAMNVRNFLKEDAMKTKTHYHAMHADCLQELRRYLKSGVVLRRTVPPMVNVTRSEASEGNITVTCRASGFYPWNITLSWRQDGVSLSHDTQQWGDVLPDGNGTYQTWVATRICQGEEQRFTCYMEHSGNHSTHPVPS,soluble
4,MKIGIFDSGAGGMTVLKAIREAYPNVDVVYLGDTARVPYGIRSKETIVRYSKECANFLKDKGVDLLVVACNTASAYALEELKREFPFPVFGVIEPGVKEALRKSKTKRIGVIGTQATIKSGAYQEALKRAGAEVYSKACPLFVPLVEEGMIEGEIPKKVVEHYLKDFKGKVDTLILGCTHYPLLKREIQNFLEGVNVIDSSRATAKSLKDFVKNEGSGSLELYFTDRSQNLERLIKLILGEEVEPKITSEVFVL,soluble
5,MKFFIAFACLLAVALANEDANVLRAEQQVNVDGFAYAVELDNSVNVQQKGDLNGEEWVVKGSQSWTSPENVPVSIQYIADANGYQVVSANPPLPTPPPIPEAIQRSLEYIAAHPPSQLEHHHHHH,not soluble
6,MGSDKIHHHHHHMIDIKNTLLLGHRGARGEALENTLSGFEYAQNLQLSGLAGVEFDVQLSRDGQLVVFHDDTLERMCAQQSRLDQLNVSEIQRHRQFGQPIITLLDIASALNTYTYIELEVKTHSRTDYAKLVKALMHDLIDSSLASLPIVLTSFDVALHARLQRSTLLRHIPRGLLIREPELLKQAPNTALQLGCGQLGIHYPLLNHKVIQCCHQYDLPVSAWTVNDIETIKQLIDWQVDVIITDYPSYLLLP,not soluble
7,MGSDKIHHHHHHMFLSSMKLGIQSYSLRKLTYENALKVMSELGISYVEAFPRHLPPSSNSVKDIINLHKENGVKVIAHGVNHLKSDKKELRSIFDFANKVEIEVITADPDEDCLNLMSDLVKEYDIKVAIHNHGPYHRWGSYKKIYEFTKNLDYRVGMCLDLAHLFRYGENPIEAVNTLRDRIHDIHVKDVNNKGEDVIVGSGILDVKGVIGKVKELNLDIPLMIEYEPEPENPLPGIVKSLEYVKKLL,not soluble
8,MLHTTDFSDIFSSDYSSKVSFKKGDIIHSFKDYEKKPPQIGVILEGTAVLEGPTNEGRWMINALISENAIFGMESLLETKTAPELTEYRVRALENGRALFIDREFFLNYLYANPHFFHLVLDDVIVRYLFTAKNYKNINQPPIIKVTRIFVEIIELLNLHQTEGPIVLPSYITQTFLADYCRSSRARITESLEELLVNGLLASKKPITISSHEKLLDQIDSFQTGNGLLTK,not soluble
9,MAHHHHHHMAYPYNAYLGYTQPPTQYGQPPVVAGAHGHLPVTTPLPYNAQSAYGGAQPP,not soluble
10,MGHHHHHHSHMVAWKRQLILFGGFHESTRDYIYYNDVYAFNLDTFTWSKLSPSGTGPTPRSGCQMSVTPQGGIVVYGGYSKQRVKKDVDKGTRHSDMFLLKPEDGREDKWVWTRMNPSGVKPTPRSGFSVAMAPNHQTLFFGGVCDEEEEESLSGEFFNDLYFYDATRNRWFEGQLKKLRSGWRRRTRKRTVRRLRAPRVGSTTKTAERRAVRRTESPCQGRLASAVPTSAQDPAVLSEALGASVRPDAQERAEGGWPRPGCELSPMV,not soluble
